Read-outs that look alike come from different tables or passages of the source. Blank lines part the entries; values can stand above or below the binder they belong to. Ends that are not written are not given here.
Experiments:
[1] = biological target: T1, Peptide no. 7 (Figures 7A, 7B) (also: N-terminus acylated); experiment: array of terminally truncated, acylated hIL20 peptides on cellulose; fluorescein-labelled antibody; fluorescence as OD
T1 construct: peptide array on cellulose
T1 peptide: YQTPDHYTLRKISSLAN
Method: (§1) The screenings were done using fluorescence labelled antibodies. The labelling was done by gel-filtering the antibody stock against 1% NaHCO3, using NAP5 column (GE Healthcare according the manual from manufacturer. This was followed by adding 25 mole equivalents of 5(6)-carboxyfluorescein N-hydroxysuccinimide ester (Sigma, C1609) dissolved in DMSO. The coupling was allowed to continue for 2 hours followed by a gelfiltration against TRIS washing buffer (50 mM TRIS, pH=7.4, 0.15M NaCl, 0.1 M ArgHCl, 0.05% Tween 20) in order to removed uncoupled fluorescein.
(§2) Screening of arrays were done by adding 10 μl of antibody to 30 ml incubation buffer (0.5% BSA, 50 mM TRIS, pH=7.4, 0.15M NaCl, 0.1 M ArgHCl, 0.05% Tween 20). The sheets were incubated for 1-2 hours, followed by washing five times with washing buffer. […] The fluorescence intensity were measured and transformed into digits that were exported to Prism 5 (Graph Pad Software, USA) for further analysis.

[2] = biological target: T2, Peptide no. 3 (Figures 7A, 7B) (N-terminus acylated); experiment: as above
T2 construct: peptide array on cellulose
T2 peptide: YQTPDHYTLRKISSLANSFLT
Method: as §1, §2

[3] = biological target: T3, Peptide no. 2 (Figures 7A, 7B) (N-terminus acylated); experiment: as above
T3 construct: peptide array on cellulose
T3 peptide: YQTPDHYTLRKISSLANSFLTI
Method: as §1, §2

[4] = biological target: T4, Peptide no. 6 (Figures 7A, 7B) (also: N-terminus acylated); experiment: as above
T4 construct: peptide array on cellulose
T4 peptide: YQTPDHYTLRKISSLANS
Method: as §1, §2

[5] = biological target: T5, recombinant human interleukin-20 (human, UniProt Q9NYY1 25-176); experiment: SPR (Biacore 3000/T100), antibody amine-coupled on CM5, recombinant hIL20 injected 3.125-100 nM, 1:1 Langmuir, 25 C; antibody from HEK293
T5 construct: also called hIL20; IL20
T5 sequence: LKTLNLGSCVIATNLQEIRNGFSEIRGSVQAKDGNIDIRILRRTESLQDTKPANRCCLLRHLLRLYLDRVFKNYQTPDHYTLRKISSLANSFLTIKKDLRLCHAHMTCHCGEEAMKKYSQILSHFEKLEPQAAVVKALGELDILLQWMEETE
Method: Affinity studies were performed using a direct binding procedure, with the monoclonal antibody covalently coupled via free amine groups to the carboxymethylated dextrane membrane (CM5) on the sensor chip surface. […] The kinetic parameters for the interaction could be calculated using a 1:1 interaction Langmuir fitting model.
The purified monoclonal antibodies were immobilized in individual flow cells on a CM5 type sensor chip. Immobilizations were performed using a standard amine coupling procedure, aiming for an immobilization level of 1000 Resonance Units (RU). The antibodies were diluted to 5 μg/ml in 10 mM NaAc pH 5.0. […] Association (injection) was 3 min., followed by a 30 min. dissociation (wash) period. Flow rate was 30 μl/min. Experiments were performed at 25° C. Regeneration of the surface following each cycle, was accomplished by injection of 30 sec. pulse of 10 mM Glycin-HCl pH 1.8, at a 30 ul/min flow rate. Detection in all flow cells simultaneously. Flow cell No. 1 contained no immobilized antibody, and was used for subtraction of background and bulk. […] Data was inspected for mass-transport limitations prior to calculation of the kinetic parameters. Experiments were performed on Biacore 3000 and T100 instruments. Data was evaluated using Biaeval 4.1 and Biacore T100 evaluation software.

[6] = biological target: T5, recombinant human interleukin-20; experiment: cell-based or functional assay
[7] = biological target: T6, cynomolgus IL20 (cynomolgus monkey, UniProt Q9NYY1 25-176 (human entry)); experiment: cell-based or functional assay
T6 chain: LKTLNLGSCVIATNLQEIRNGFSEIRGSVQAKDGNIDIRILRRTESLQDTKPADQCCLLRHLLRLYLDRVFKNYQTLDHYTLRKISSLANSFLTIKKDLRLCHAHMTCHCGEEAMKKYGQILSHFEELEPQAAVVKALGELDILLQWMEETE

[8] = biological target: T7, murine IL20 (mouse, UniProt Q9JKV9 25-176); experiment: cell-based or functional assay
T7 sequence: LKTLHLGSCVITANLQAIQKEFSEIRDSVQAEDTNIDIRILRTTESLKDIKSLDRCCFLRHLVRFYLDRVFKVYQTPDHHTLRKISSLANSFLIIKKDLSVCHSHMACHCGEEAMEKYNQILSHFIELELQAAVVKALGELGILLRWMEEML

[9] = biological target: T8, Peptide no. 4 (Figures 7A, 7B) (N-terminus acylated); experiment: array of terminally truncated, acylated hIL20 peptides on cellulose; fluorescein-labelled antibody; fluorescence as OD
T8 construct: peptide array on cellulose
T8 peptide: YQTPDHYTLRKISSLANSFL
Method: as §1, §2

[10] = biological target: T1, Peptide no. 7 (Figures 7A, 7B); experiment: as above
Method: as §1, §2

[11] = biological target: T9, Peptide no. 5 (Figures 7A, 7B) (also: N-terminus acylated); experiment: as above
T9 construct: peptide array on cellulose
T9 peptide: YQTPDHYTLRKISSLANSF
Method: as §1, §2

[12] = biological target: T2, Peptide no. 3 (Figures 7A, 7B); experiment: as above
Method: as §1, §2

[13] = biological target: T3, Peptide no. 2 (Figures 7A, 7B); experiment: as above
Method: as §1, §2

[14] = biological target: T10, Peptide no. 17 (Figures 7A, 7B) (also: N-terminus acylated); experiment: as above
T10 construct: peptide array on cellulose
T10 peptide: HYTLRKISSLANSFLTIK
Method: as §1, §2

[15] = biological target: T11, Peptide no. 14 (Figures 7A, 7B) (N-terminus acylated); experiment: as above
T11 construct: peptide array on cellulose
T11 peptide: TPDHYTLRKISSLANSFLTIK
Method: as §1, §2

[16] = biological target: T12, Peptide no. 18 (Figures 7A, 7B) (also: N-terminus acylated); experiment: as above
T12 construct: peptide array on cellulose
T12 peptide: YTLRKISSLANSFLTIK
Method: as §1, §2

[17] = biological target: T13, Peptide no. 1 (Figures 7A, 7B) (N-terminus acylated); experiment: as above
T13 construct: peptide array on cellulose
T13 peptide: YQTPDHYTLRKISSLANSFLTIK
Method: as §1, §2

[18] = biological target: T4, Peptide no. 6 (Figures 7A, 7B); experiment: as above
Method: as §1, §2

[19] = biological target: T14, Peptide no. 16 (Figures 7A, 7B) (also: N-terminus acylated); experiment: as above
T14 construct: peptide array on cellulose
T14 peptide: DHYTLRKISSLANSFLTIK
Method: as §1, §2

[20] = biological target: T15, Peptide no. 15 (Figures 7A, 7B) (N-terminus acylated); experiment: as above
T15 construct: peptide array on cellulose
T15 peptide: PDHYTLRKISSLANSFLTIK
Method: as §1, §2

[21] = biological target: T16, Peptide no. 86 (Figure 6A); experiment: 18mer hIL20 peptide array on cellulose, 4 residue walk; fluorescein-labelled antibody; fluorescence as OD
T16 construct: also called Peptide no
T16 peptide: NYQTPDHYTLRKISSLAN
Method: as §1, §2

[22] = biological target: T17, Peptide no. 87 (Figure 6A); experiment: as above
T17 construct: also called Peptide no
T17 peptide: PDHYTLRKISSLANSFLT
Method: as §1, §2

- binding result [1]: binds
- binding result [2]: binds
- binding result [3]: binds
- binding result [4]: binds
- Kd [5]: 0.032 nM
- koff [5]: 6.3e-05 s⁻¹
- kon [5]: 1.9e+06 M⁻¹ s⁻¹
- efficacy (percentage inhibition) of IL20-induced proliferation of BaF-3(hIL20R) [6]: ~100%
- efficacy (percentage inhibition) of IL20-induced proliferation of BaF-3(hIL20R) [7]: ~100%
- efficacy (percentage inhibition) of IL20-induced proliferation of BaF-3(hIL20R) [8]: ~100%
B1: human anti-hIL20 monoclonal antibody 15D2 (antibody, V domains shown)
VH: QVQLVQSGAEVKRPGASVKVSCKASGYTFTNDIIHWVRQAPGQRLEWMGWINAGYGNTQYSQNFQDRVSITRDTSASTAYMELISLRSEDTAVYYCAREPLWFGESSPHDYYGMDVWGQGTTVTVSS
VL: AIQLTQSPSSLSASVGDRVTITCRASQGISSALAWYQQKPGKAPKLLIYDASSLESGVPSRFSGSGSGTDFTLTISSLQPEDFATYYCQQFNSYPLTFGGGTKVEIKR
notes: also called 15D2-wt; 15D2 wild-type

- binding result [9]: binds
- binding result [10]: binds
- binding result [11]: binds
- binding result [12]: binds
- binding result [13]: binds
- binding result [14]: binds
- binding result [15]: binds
- binding result [16]: no binding
- binding result [17]: binds
- binding result [18]: binds
- binding result [19]: binds
- binding result [20]: binds
- binding result [21]: binds
- binding result [22]: binds
B2: human anti-hIL20 monoclonal antibody 5B7 (antibody, human IgG4, V domains shown)
VH: QVQLVQSGAEVKRPGASVKVSCKASGYTFSSHIMHWVRQAPGQRLEWMGWINAGYGNTKYSQNFQDRVTITRDTSASTAYMELISLRSEDTAVYYCAREPLWFGELSPHDYYGMDVWGQGTTVTVSS
VL: AIQLTQSPSSLSASVGDRVTITCRASQGISSALAWYQQKPGKAPKLLIYDASSLESGVPSRFSGSGSGTDFTLTISSLQPEDFATYYCQQFNSYPLTFGGGTKVEIKR
notes: described as human IgG4; also called 5B7-wt

Reference: patent US20130039923A1 (Novo Nordisk, published 2013)
